Data from US12281147 (dated 2025).

B1: recombinant human IL-21R His tag (Acro Biosystems) (receptor, not shown: small tags and cut ends)
chain: not shown
B2: mouse IL-21R, His-tagged (BLI antigen) (receptor, not shown: small tags and cut ends)
chain: not shown

Biological target: IL-21_mouse_WT Fc fusion protein (mouse; human, UniProt Q9ES17 18-146)
Experiment: BLI

Binder | Kd [nM]
B1 | 6.38
B2 | 5.08
